3 molecules from article PMC10397247 can be followed below.

Read-outs that look alike come from different tables or passages of the source.

Holding throughout (experiment): two-hybrid library CCmax;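 also: natural log of median RNA to DNA barcode read ratio; higher means stronger binding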
One experiment addresses T1, N5-AA.
T1 chain: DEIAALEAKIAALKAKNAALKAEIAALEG

A further experiment addresses T2, N6-AA.
T2 chain: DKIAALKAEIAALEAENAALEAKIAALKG
The conditions noted are these: mean of both orientations.

In another experiment the target is T3, 4H993-AA.
T3 chain: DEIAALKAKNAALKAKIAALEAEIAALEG
The conditions noted are these: mean of both orientations.

In the next experiment the target is T4, 4H717-AA.
T4 chain: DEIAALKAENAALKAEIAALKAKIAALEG
The conditions noted are these: mean of both orientations.

For a further experiment, the target named is T5, 4H794-AA.
T5 chain: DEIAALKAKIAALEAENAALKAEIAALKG
The conditions noted are these: mean of both orientations.

Another experiment has as its target T6, 4H48-AA.
T6 chain: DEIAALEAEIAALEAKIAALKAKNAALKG

Another experiment addresses T7, 4H881-AA.
T7 chain: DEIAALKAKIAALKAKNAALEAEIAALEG
The conditions noted are these: mean of both orientations.

The target in the next experiment is T8, 4H605-AA.
T8 chain: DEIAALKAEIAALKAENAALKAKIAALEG
The conditions noted are these: mean of both orientations.

In the next experiment the target is T9, 4H566-AA.
T9 chain: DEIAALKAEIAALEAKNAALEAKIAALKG
The conditions noted are these: mean of both orientations.

The next experiment addresses T10, 4H678-AA.
T10 chain: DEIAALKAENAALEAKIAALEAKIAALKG
The conditions noted are these: mean of both orientations.

The target of another experiment is T11, 4H906-AA.
T11 chain: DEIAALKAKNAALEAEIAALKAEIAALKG
The following applies: mean of both orientations.

The target in a further experiment is T12, 4H2642-AA.
T12 chain: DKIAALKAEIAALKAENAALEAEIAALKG
The following applies: mean of both orientations.

The target of another experiment is T13, 4H3343-AA.
T13 chain: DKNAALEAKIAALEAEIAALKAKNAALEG
The conditions noted are these: mean of both orientations.

The target of another experiment is T14, 4H342-AA.
T14 chain: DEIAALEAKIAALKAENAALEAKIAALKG
The following applies: mean of both orientations.

For the next experiment, the target named is T15, 4H2277-AA.
T15 chain: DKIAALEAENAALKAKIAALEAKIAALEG
The conditions noted are these: mean of both orientations.

The target of another experiment is T16, 4H2754-AA.
T16 chain: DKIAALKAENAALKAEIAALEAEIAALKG
The conditions noted are these: mean of both orientations.

The target in a further experiment is T17, 4H2944-AA.
T17 chain: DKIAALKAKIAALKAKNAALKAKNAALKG
The conditions noted are these: mean of both orientations.

The target in another experiment is T18, 4H2165-AA.
T18 chain: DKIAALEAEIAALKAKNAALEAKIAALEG
The conditions noted are these: mean of both orientations.

Another experiment has as its target T19, 4H454-AA.
T19 chain: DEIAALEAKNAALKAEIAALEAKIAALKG
The conditions noted are these: mean of both orientations.

For another experiment, the target named is T20, 4H2078-AA.
T20 chain: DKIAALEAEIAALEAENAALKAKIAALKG
The following applies: mean of both orientations.

The target of the next experiment is T21, 4H3921-AA.
T21 chain: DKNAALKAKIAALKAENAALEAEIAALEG
The following applies: mean of both orientations.

The target of another experiment is T22, 4H234-AA.
T22 chain: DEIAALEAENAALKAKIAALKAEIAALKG
The following applies: mean of both orientations.

The next experiment has as its target T23, 4H1842-AA.
T23 chain: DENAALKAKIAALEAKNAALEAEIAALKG

For a further experiment, the target named is T24, 4H2575-AA.
T24 chain: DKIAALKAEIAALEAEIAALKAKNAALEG
The following applies: mean of both orientations.

Another experiment addresses T25, 4H3427-AA.
T25 chain: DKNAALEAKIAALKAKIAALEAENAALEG
The conditions noted are these: mean of both orientations.

Another experiment has as its target T26, 4H2729-AA.
T26 chain: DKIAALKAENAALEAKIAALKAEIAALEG
The conditions noted are these: mean of both orientations.

In the next experiment the target is T27, 4H335-AA.
T27 chain: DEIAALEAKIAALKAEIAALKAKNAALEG
The following applies: mean of both orientations.

The next experiment deals with T28, 4H780-AA.
T28 chain: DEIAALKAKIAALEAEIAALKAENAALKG
The following applies: mean of both orientations.

The target in a further experiment is T29, 4H1867-AA.
T29 chain: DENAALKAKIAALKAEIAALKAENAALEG
The conditions noted are these: mean of both orientations.

In another experiment the target is T30, 4H2883-AA.
T30 chain: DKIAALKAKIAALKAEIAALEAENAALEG
The conditions noted are these: mean of both orientations.

In a further experiment the target is T31, 4H2393-AA.
T31 chain: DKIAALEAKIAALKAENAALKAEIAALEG
The conditions noted are these: mean of both orientations.

For another experiment, the target named is T32, 4H3606-AA.
T32 chain: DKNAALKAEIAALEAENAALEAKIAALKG
The following applies: mean of both orientations.

The next experiment deals with T33, 4H3655-AA.
T33 chain: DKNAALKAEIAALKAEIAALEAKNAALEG
The conditions noted are these: mean of both orientations.

The next experiment addresses T34, 4H1352-AA.
T34 chain: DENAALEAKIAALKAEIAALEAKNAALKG
The conditions noted are these: mean of both orientations.

The next experiment concerns the target T35, 4H2466-AA.
T35 chain: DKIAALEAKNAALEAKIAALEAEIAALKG

The next experiment addresses T36, 4H429-AA.
T36 chain: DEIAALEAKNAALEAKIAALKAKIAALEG
The following applies: mean of both orientations.

For the next experiment, the target named is T37, 4H1636-AA.
T37 chain: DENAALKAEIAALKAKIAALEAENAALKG
The conditions noted are these: mean of both orientations.

A further experiment concerns the target T38, 4H2354-AA.
T38 chain: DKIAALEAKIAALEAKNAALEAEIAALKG
The conditions noted are these: mean of both orientations.

Another experiment addresses T39, 4H1324-AA.
T39 chain: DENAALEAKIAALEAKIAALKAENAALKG

The next experiment deals with T40, 4H2151-AA.
T40 chain: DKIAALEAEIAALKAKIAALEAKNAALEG
The conditions noted are these: mean of both orientations.

The next experiment concerns the target T41, 4H2949-AA.
T41 chain: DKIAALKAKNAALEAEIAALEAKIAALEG
The following applies: mean of both orientations.

The next experiment deals with T42, 4H3112-AA.
T42 chain: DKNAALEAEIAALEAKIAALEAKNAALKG
The conditions noted are these: mean of both orientations.

Another experiment concerns the target T43, 4H2190-AA.
T43 chain: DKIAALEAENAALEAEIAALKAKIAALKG
The conditions noted are these: mean of both orientations.

A further experiment has as its target T44, 4H317-AA.
T44 chain: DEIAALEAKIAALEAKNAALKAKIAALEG
The following applies: mean of both orientations.

The target in the next experiment is T45, 4H1401-AA.
T45 chain: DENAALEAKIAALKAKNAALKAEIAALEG
The conditions noted are these: mean of both orientations.

The target in a further experiment is T46, 4H3844-AA.
T46 chain: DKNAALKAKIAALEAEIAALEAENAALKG
The following applies: mean of both orientations.

For another experiment, the target named is T47, 4H3627-AA.
T47 chain: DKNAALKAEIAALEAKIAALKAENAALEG
The conditions noted are these: mean of both orientations.

The target of the next experiment is T48, 4H2617-AA.
T48 chain: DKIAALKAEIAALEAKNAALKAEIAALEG
The following applies: mean of both orientations.

In the next experiment the target is T49, 4H1552-AA.
T49 chain: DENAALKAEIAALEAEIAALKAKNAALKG
The conditions noted are these: mean of both orientations.

The target of another experiment is T50, 4H2505-AA.
T50 chain: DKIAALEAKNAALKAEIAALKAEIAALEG
The following applies: mean of both orientations.

Another experiment has as its target T51, 4H2837-AA.
T51 chain: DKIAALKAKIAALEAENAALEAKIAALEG
The following applies: mean of both orientations.

B1: N5-AA (peptide)
chain: DEIAALEAKIAALKAKNAALKAEIAALEG
As for B1, the interaction score was -0.624 in the experiment with N5-AA and 2.28 with N6-AA.

B2: 4H48-AA (peptide)
chain: DEIAALEAEIAALEAKIAALKAKNAALKG
Take B2: the interaction score with 4H993-AA was 0.666; in the experiment with 4H717-AA, -1.37; with N5-AA (mean of both orientations), 0.994; with 4H794-AA, -1.49; in the experiment with 4H48-AA, 1.11; with 4H881-AA, 0.161. The interaction score with N6-AA is 1.34; in the experiment with 4H605-AA it was -1.62; with 4H566-AA, -0.519; in the experiment with 4H678-AA, -0.779; with 4H906-AA, -1.25.

B3: 4H1324-AA (peptide)
chain: DENAALEAKIAALEAKIAALKAENAALKG
Regarding B3, the interaction score in the experiment with 4H2642-AA was -0.934; in the experiment with 4H3343-AA, 0.278; in the experiment with 4H342-AA, -1.05; in the experiment with 4H2277-AA, -1.35; with 4H2754-AA, -1.3; in the experiment with 4H2944-AA, -1.01. Besides, the interaction score was 1.28 with 4H993-AA; -1.47 with 4H2165-AA; -1.26 in the experiment with 4H717-AA; -0.814 in the experiment with 4H454-AA; 1.78 with 4H2078-AA; -1.15 with 4H3921-AA. Moreover, the interaction score with 4H234-AA was -2.21; with 4H1842-AA it was -1.92; with 4H2575-AA, 0.676; with 4H3427-AA, 0.0395; with 4H2729-AA it was -1.35; with 4H794-AA, -1.34. In addition, the interaction score in the experiment with 4H335-AA is -0.376; with 4H780-AA, 0.567; with 4H1867-AA, 0.462; with 4H2883-AA, 1.32; with 4H2393-AA, -0.744; with 4H3606-AA it was -1.02. For the same molecule, the interaction score with 4H3655-AA was -0.51; with 4H48-AA (mean of both orientations), 1.07; with 4H1352-AA, 0.674; with 4H2466-AA, -1.2; with 4H881-AA it was -1.69; in the experiment with 4H429-AA it was -1.18. In addition, the interaction score was -0.551 with 4H1636-AA; -1.59 with 4H2354-AA; 1.4 with 4H1324-AA; -0.928 with 4H2151-AA; -1.16 with 4H2949-AA; 0.0224 with 4H3112-AA. Also, the interaction score with 4H2190-AA is -1.14; with 4H317-AA it was -1.41; in the experiment with 4H1401-AA, -1.6; with 4H3844-AA, 2.11; with 4H605-AA, -1.44; with 4H566-AA it was -1.31. Besides, the interaction score was 0.372 with 4H3627-AA; -1.52 with 4H678-AA; -0.287 in the experiment with 4H2617-AA; 1.17 with 4H1552-AA; -1.2 with 4H2505-AA; -1.14 with 4H2837-AA. This molecule gave an interaction score in the experiment with 4H906-AA of -1.42.
